Measurements reported in publication PMC8687462 (bioRxiv, 2021).

What was measured:
HSPB6-nhpSer16 [1] = target: HSPB6-nhpSer16 (UniProt O14558); experiment: SEC-MALS; details: scale: 14-3-3 chains per HSPB6 chain
HSPB6-pSer16 [2] = target: HSPB6-pSer16 (UniProt O14558); experiment: SEC-MALS; details: scale: 14-3-3 chains per HSPB6 chain
HSPB6-nhpSer16 [3] = target: HSPB6-nhpSer16 (UniProt O14558); experiment: AUC
HSPB6-pSer16 [4] = target: HSPB6-pSer16 (UniProt O14558); experiment: AUC
SEC-MALS = target: the molecule itself; experiment: SEC-MALS

14-3-3ζ (untagged, co-expressed with His-tagged HSPB6), sequence (P63104 1-230): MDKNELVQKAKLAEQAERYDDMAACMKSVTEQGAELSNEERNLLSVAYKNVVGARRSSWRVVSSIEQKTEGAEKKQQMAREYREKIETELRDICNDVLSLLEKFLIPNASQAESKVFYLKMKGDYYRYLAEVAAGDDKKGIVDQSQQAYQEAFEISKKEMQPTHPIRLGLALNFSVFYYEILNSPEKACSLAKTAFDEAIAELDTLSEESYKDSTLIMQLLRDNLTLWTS
HSPB6-pSer16, sequence (O14558 whole entry): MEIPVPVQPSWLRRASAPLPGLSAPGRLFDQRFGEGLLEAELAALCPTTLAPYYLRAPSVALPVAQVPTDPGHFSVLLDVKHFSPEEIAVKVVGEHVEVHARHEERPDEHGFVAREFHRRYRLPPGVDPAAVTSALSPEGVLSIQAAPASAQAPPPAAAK

stoichiometry N (HSPB6-nhpSer16 [1])	stoichiometry N (HSPB6-pSer16 [2])	Kd (HSPB6-nhpSer16 [3]) [nM]	Kd (HSPB6-pSer16 [4]) [nM]	Molecule	stoichiometry N (SEC-MALS)
1	1	120	92	14-3-3ζ (untagged, co-expressed with His-tagged HSPB6) (from UniProt P63104 1-230) (natural protein)	
				14-3-3ζ S58E (natural protein) MDKNELVQKAKLAEQAERYDDMAACMKSVTEQGAELSNEERNLLSVAYKNVVGARRSEWRVVSSIEQKTEGAEKKQQMAREYREKIETELRDICNDVLSLLEKFLIPNASQAESKVFYLKMKGDYYRYLAEVAAGDDKKGIVDQSQQAYQEAFEISKKEMQPTHPIRLGLALNFSVFYYEILNSPEKACSLAKTAFDEAIAELDTLSEESYKDSTLIMQLLRDNLTLWTS	2
